The test system of the series is MBP-(ZF)x6 (designed chimera), Q01844-5+P47974+O95218+O95218+P52756+P47974. Put plainly: BLI. Conditions: ITC: 50 mM Tris pH 7.5, 150 mM NaCl, 1 mM DTT, 0.1 mM ZnCl2, 25 °C, BLI: 50 mM Tris pH 7.5, 150 mM NaCl, 0.1% BSA, 0.02% Tween, 30 °C.
MBP-(ZF)x6 (designed chimera), Q01844-5+P47974+O95218+O95218+P52756+P47974, sequence (P52756 whole entry, looked up, change not shown, chain 1 of 4): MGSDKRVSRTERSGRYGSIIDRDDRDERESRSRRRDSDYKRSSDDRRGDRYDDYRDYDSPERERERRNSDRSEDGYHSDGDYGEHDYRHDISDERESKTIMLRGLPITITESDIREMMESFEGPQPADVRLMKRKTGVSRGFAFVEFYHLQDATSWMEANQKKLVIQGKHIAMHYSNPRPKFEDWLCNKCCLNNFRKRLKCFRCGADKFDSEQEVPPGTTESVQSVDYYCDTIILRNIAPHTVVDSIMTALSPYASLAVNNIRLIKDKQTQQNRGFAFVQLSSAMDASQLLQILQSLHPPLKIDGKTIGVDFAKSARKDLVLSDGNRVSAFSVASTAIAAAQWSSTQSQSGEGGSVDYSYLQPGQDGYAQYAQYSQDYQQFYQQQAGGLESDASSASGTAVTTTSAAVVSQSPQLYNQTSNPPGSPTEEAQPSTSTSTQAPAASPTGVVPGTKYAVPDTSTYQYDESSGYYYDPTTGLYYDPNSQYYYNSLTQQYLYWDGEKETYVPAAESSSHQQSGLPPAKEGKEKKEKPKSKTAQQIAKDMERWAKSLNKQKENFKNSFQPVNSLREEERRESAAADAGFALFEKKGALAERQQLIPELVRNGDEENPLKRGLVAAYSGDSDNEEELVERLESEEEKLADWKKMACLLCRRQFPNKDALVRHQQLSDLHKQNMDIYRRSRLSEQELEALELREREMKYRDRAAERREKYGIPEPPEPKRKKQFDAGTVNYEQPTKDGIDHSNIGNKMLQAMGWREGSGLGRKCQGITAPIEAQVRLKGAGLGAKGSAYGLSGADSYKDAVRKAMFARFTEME
MBP-(ZF)x6 (designed chimera), Q01844-5+P47974+O95218+O95218+P52756+P47974, sequence (P47974 whole entry, looked up, change not shown, chain 2 of 4): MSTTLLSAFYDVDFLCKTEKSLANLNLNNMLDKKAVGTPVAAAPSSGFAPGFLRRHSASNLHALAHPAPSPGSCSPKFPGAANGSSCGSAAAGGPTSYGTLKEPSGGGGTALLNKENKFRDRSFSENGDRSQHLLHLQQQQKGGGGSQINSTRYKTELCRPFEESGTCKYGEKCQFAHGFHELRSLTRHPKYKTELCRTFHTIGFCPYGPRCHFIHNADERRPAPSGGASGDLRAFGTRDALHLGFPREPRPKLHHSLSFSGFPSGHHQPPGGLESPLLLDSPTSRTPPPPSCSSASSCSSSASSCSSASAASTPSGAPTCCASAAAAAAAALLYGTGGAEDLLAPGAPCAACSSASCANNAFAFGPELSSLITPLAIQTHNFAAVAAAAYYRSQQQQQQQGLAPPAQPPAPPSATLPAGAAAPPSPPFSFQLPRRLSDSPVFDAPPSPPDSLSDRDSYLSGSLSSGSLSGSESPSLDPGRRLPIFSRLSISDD
MBP-(ZF)x6 (designed chimera), Q01844-5+P47974+O95218+O95218+P52756+P47974, sequence (O95218 whole entry, looked up, change not shown, chain 3 of 4): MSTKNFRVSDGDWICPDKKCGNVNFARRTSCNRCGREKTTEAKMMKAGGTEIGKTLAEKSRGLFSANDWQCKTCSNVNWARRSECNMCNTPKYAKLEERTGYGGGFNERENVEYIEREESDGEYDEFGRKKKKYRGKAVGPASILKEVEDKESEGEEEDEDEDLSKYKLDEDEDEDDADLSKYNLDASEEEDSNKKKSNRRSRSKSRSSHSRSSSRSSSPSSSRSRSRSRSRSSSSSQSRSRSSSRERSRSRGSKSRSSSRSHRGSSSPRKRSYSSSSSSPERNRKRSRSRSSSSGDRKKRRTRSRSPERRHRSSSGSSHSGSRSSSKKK
MBP-(ZF)x6 (designed chimera), Q01844-5+P47974+O95218+O95218+P52756+P47974, sequence (Q01844 whole entry, looked up, change not shown, chain 4 of 4): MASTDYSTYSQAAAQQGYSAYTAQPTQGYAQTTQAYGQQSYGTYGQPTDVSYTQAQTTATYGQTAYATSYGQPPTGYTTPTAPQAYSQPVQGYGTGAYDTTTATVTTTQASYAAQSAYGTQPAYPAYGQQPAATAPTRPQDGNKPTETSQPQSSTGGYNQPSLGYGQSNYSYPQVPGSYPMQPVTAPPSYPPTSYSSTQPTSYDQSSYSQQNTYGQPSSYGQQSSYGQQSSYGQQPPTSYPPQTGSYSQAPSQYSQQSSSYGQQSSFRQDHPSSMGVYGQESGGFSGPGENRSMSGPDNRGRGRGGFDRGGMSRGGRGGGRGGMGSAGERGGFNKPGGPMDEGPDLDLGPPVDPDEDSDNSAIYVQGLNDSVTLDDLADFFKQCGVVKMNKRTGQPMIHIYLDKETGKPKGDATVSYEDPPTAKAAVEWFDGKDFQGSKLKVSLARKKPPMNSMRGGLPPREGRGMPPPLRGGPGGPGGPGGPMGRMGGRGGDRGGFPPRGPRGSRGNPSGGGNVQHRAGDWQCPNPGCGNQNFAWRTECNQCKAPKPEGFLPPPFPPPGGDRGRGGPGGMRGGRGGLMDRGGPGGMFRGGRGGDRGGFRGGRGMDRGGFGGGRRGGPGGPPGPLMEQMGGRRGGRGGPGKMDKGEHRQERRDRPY

“AAAGGUUAUUGGUGCCGGGUAUUAAA [(ZF)x6 target]” yielded a Kd of 24 nM.
In turn, “AAAUAUUGGUGGGUAUUGCCGGUAAA [PT (permuted target)]” showed a Kd of 223 nM.

The term Kd denotes the free concentration of one partner at which half of the binding sites on the other are occupied at equilibrium, for simple one-to-one binding. The low end stands for tighter binding, the high end for weaker binding.

Source of the values: paper PMC6384913.
